Where no end group is shown, it is not given here. The star is where a group is joined. Biotin = O=C1N[C@H]2[C@H](CS[C@H]2CCCCC(=O)*)N1
B1: Peptide PDPK1 WT: NH2-ARTTSQLYDAVPIQSS-GGY-K(biotin) (peptide)
peptide: H-ARTTSQLYDAVPIQSSGGYK(Biotin)
B2: Peptide acetyl PDPK1 WT 15-mer: Acetyl-ARTTSQLYDAVPIQS-amidated (peptide)
peptide: Ac-ARTTSQLYDAVPIQS-NH2
B3: Peptide acetyl PDPK1 WT 10-mer: Acetyl - ARTTSQLYDA-amidated (peptide)
peptide: Ac-ARTTSQLYDA-NH2

What was measured:
[1] = target: recombinant 6xHis-SUMO-WDR5 (22-334) (human, UniProt P61964 22-334); experiment: pull-down
[2] = target: 6xHis-tagged WDR5 (24-334) (human, UniProt P61964 24-334); experiment: AlphaScreen or HTRF

| Binder | binding result [1] | binding result [2] |
| --- | --- | --- |
| B1 | binds |  |
| B2 |  | binds |
| B3 |  | binds |

From article PMC7871196 (Cell reports, 2021)
